For three molecules, EC50 results are on record in PMC4926178 (Viruses, 2016).

The EC50 is the midpoint of the concentration-response curve.

Read-outs that look alike come from different tables or passages of the source.

Common to all, as to test: ELISA
For orientation: ELISA stands for enzyme-linked immunosorbent assay.

One assay addresses T1, ribonuclease B (UniProt P61823 27-150).
T1 construct: also called RNase B
T1 sequence (looked up): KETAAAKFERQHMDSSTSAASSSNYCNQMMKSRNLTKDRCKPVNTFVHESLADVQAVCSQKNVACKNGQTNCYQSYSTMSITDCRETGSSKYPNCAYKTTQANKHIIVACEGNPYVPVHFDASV

Assay [1] addresses glycosylated soluble gp120 (rgp 120 HIV-1 MN, baculovirus) (HIV-1 MN) (UniProt P05877).
For assay [2], the target named is glycosylated soluble gp120 (rgp 120 HIV-1 MN, baculovirus) (HIV-1 MN), P05877. Conditions: remark: other sources report otherwise.

Take “Nested Cyanovirin-N (Nested CV-N) (from UniProt P81180 1-50; P81180 1-101) (designed binder)”: the EC50 with ribonuclease B is 13 nM; in assay [1], 1.29 nM.

B1: wild-type Cyanovirin-N (WT CV-N), P81180 1-101 (natural protein)
chain: LGKFSQTCYNSAIQGSVLTSTCERTNGGYNTSSIDLNSVIENVDGSLKWQPSNFIETCRNTQLAGSSELAAECKTRAQQFVSTKINLDDHIANIDGTLKYE
modifications: here or on the partner: glycosylated (oligomannose glycans; about 25 sites per monomer)
As to B1, in assay [2], the EC50 amounted to 1.66 nM.

B2: wild-type Cyanovirin-N (WT CV-N) (natural protein)
chain: LGKFSQTCYNSAIQGSVLTSTCERTNGGYNTSSIDLNSVIENVDGSLKWQPSNFIETCRNTQLAGSSELAAECKTRAQQFVSTKINLDDHIANIDGTLKYE
Regarding B2, the EC50 in the assay with ribonuclease B (both partners purified) turned out to be 17 nM.
